From IntAct's records for PubMed 27273569

Target: wsb1_human WSB1 (UniProt Q9Y6I7)
Chain of UniProt Q9Y6I7 (Q9Y6I7 whole entry): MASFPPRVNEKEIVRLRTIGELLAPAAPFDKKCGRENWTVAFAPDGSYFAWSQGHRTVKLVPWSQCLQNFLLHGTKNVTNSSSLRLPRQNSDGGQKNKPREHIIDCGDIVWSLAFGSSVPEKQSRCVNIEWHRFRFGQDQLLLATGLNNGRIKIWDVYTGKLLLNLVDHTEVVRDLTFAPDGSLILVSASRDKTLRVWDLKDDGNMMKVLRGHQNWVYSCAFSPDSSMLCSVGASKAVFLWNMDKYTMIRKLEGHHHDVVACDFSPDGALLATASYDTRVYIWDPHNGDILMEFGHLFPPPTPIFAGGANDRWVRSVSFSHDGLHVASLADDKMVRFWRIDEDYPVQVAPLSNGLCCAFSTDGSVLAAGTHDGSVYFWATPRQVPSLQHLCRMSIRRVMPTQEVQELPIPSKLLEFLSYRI

In the case of “Leucine-rich repeat serine/threonine-protein kinase 2 (Homo sapiens), Q5S007 G2019S”, the “effect of a mutation on the interaction” value is reported as “with no effect”.
